{
  "source": "the supplement of paper PMC11316812",
  "key": {"[1]": {"tested_on": "MCF7", "test": "percentage of EdU-negative (G0-arrested) nuclei per well, 72 h; higher = more G0 arrest", "settings": "reference: sequence is the full UniProt precursor, the tested protein was the secreted form or ectodomain"}, "[2]": {"tested_on": "hTERT-HMEC", "test": "percentage of EdU-negative (G0-arrested) nuclei per well, 72 h; higher = more G0 arrest", "settings": "reference: sequence is the full UniProt precursor, the tested protein was the secreted form or ectodomain"}, "[3]": {"settings": "protein concentration 0.03125 µM"}, "[4]": {"settings": "protein concentration 0.3125 µM"}, "[5]": {"settings": "protein concentration 0.01925 µM"}, "[6]": {"settings": "protein concentration 0.1925 µM"}, "[7]": {"settings": "protein concentration 0.0157525 µM"}, "[8]": {"settings": "protein concentration 0.157525 µM"}, "[9]": {"settings": "protein concentration 0.0225 µM"}, "[10]": {"settings": "protein concentration 0.00775 µM"}, "[11]": {"settings": "protein concentration 0.0775 µM"}},
  "note": "± gives the standard deviation of the averaged measurements.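 Note: secreted proteins added to cultured cells, EdU pulse at the end, nuclei found by Hoechst imaging, EdU status from nuclear versus surrounding ring intensity ratio, PBS as neutral control.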",
  "data": [
    {"sequence": "MRPTLLWSLLLLLGVFAAAAAAPPDPLSQLPAPQHPKIRLYNAEQVLSWEPVALSNSTRPVVYQVQFKYTDSKWFTADIMSIGVNCTQITATECDFTAASPSAGFPMDFNVTLRLRAELGALHSAWVTMPWFQHYRNVTVGPPENIEVTPGEGSLIIRFSSPFDIADTSTAFFCYYVHYWEKGGIQQVKGPFRSNSISLDNLKPSRVYCLQVQAQLLWNKSNIFRVGHLSNISCYETMADASTELQQVILISVGTFSLLSVLAGACFFLVLKYRGLIKYWFHTPPSIPLQIEEYLKDPTQPILEALDKDSSPKDDVWDSVSIISFPEKEQEDVLQTL", "values": [
      {"measurement": "percentage of EdU-negative", "setting": "[1]; [3]", "result": "27.1 ± 3", "unit": "%"},
      {"measurement": "percentage of EdU-negative", "setting": "[1]; [4]", "result": "24.6 ± 0.62", "unit": "%"},
      {"measurement": "percentage of EdU-negative", "setting": "[2]; [3]", "result": "5.59 ± 1.2", "unit": "%"},
      {"measurement": "percentage of EdU-negative", "setting": "[2]; [4]", "result": "6.09 ± 0.44", "unit": "%"}
    ]},
    {"sequence": "MRPVSVWQWSPWGLLLCLLCSSCLGSPSPSTGPEKKAGSQGLRFRLAGFPRKPYEGRVEIQRAGEWGTICDDDFTLQAAHILCRELGFTEATGWTHSAKYGPGTGRIWLDNLSCSGTEQSVTECASRGWGNSDCTHDEDAGVICKDQRLPGFSDSNVIEVEHHLQVEEVRIRPAVGWGRRPLPVTEGLVEVRLPDGWSQVCDKGWSAHNSHVVCGMLGFPSEKRVNAAFYRLLAQRQQHSFGLHGVACVGTEAHLSLCSLEFYRANDTARCPGGGPAVVSCVPGPVYAASSGQKKQQQSKPQGEARVRLKGGAHPGEGRVEVLKASTWGTVCDRKWDLHAASVVCRELGFGSAREALSGARMGQGMGAIHLSEVRCSGQELSLWKCPHKNITAEDCSHSQDAGVRCNLPYTGAETRIRLSGGRSQHEGRVEVQIGGPGPLRWGLICGDDWGTLEAMVACRQLGLGYANHGLQETWYWDSGNITEVVMSGVRCTGTELSLDQCAHHGTHITCKRTGTRFTAGVICSETASDLLLHSALVQETAYIEDRPLHMLYCAAEENCLASSARSANWPYGHRRLLRFSSQIHNLGRADFRPKAGRHSWVWHECHGHYHSMDIFTHYDILTPNGTKVAEGHKASFCLEDTECQEDVSKRYECANFGEQGITVGCWDLYRHDIDCQWIDITDVKPGNYILQVVINPNFEVAESDFTNNAMKCNCKYDGHRIWVHNCHIGDAFSEEANRRFERYPGQTSNQII", "values": [
      {"measurement": "percentage of EdU-negative", "setting": "[1]; [5]", "result": "25.3 ± 1.3", "unit": "%"},
      {"measurement": "percentage of EdU-negative", "setting": "[1]; [6]", "result": "31.5 ± 2.3", "unit": "%"},
      {"measurement": "percentage of EdU-negative", "setting": "[2]; [5]", "result": "4.9 ± 0.65", "unit": "%"},
      {"measurement": "percentage of EdU-negative", "setting": "[2]; [6]", "result": "39.2 ± 1.2", "unit": "%"}
    ]},
    {"sequence": "MRQVCCSALPPPPLEKGRCSSYSDSSSSSSERSSSSSSSSSESGSSSRSSSNNSSISRPAAPPEPRPQQQPQPRSPAARRAAARSRAAAAGGMRRDPAPGFSMLLFGVSLACYSPSLKSVQDQAYKAPVVVEGKVQGLVPAGGSSSNSTREPPASGRVALVKVLDKWPLRSGGLQREQVISVGSCVPLERNQRYIFFLEPTEQPLVFKTAFAPLDTNGKNLKKEVGKILCTDCATRPKLKKMKSQTGQVGEKQSLKCEAAAGNPQPSYRWFKDGKELNRSRDIRIKYGNGRKNSRLQFNKVKVEDAGEYVCEAENILGKDTVRGRLYVNSVSTTLSSWSGHARKCNETAKSYCVNGGVCYYIEGINQLSCKCPNGFFGQRCLEKLPLRLYMPDPKQKAEELYQKRVLTITGICVALLVVGIVCVVAYCKTKKQRKQMHNHLRQNMCPAHQNRSLANGPSHPRLDPEEIQMADYISKNVPATDHVIRRETETTFSGSHSCSPSHHCSTATPTSSHRHESHTWSLERSESLTSDSQSGIMLSSVGTSKCNSPACVEARARRAAAYNLEERRRATAPPYHDSVDSLRDSPHSERYVSALTTPARLSPVDFHYSLATQVPTFEITSPNSAHAVSLPPAAPISYRLAEQQPLLRHPAPPGPGPGPGPGPGPGADMQRSYDSYYYPAAGPGPRRGTCALGGSLGSLPASPFRIPEDDEYETTQECAPPPPPRPRARGASRRTSAGPRRWRRSRLNGLAAQRARAARDSLSLSSGSGGGSASASDDDADDADGALAAESTPFLGLRGAHDALRSDSPPLCPAADSRTYYSLDSHSTRASSRHSRGPPPRAKQDSAPL", "values": [
      {"measurement": "percentage of EdU-negative", "setting": "[1]; [7]", "result": "24.9 ± 0.53", "unit": "%"},
      {"measurement": "percentage of EdU-negative", "setting": "[1]; [8]", "result": "26.5 ± 0.38", "unit": "%"},
      {"measurement": "percentage of EdU-negative", "setting": "[2]; [7]", "result": "4.61 ± 0.33", "unit": "%"},
      {"measurement": "percentage of EdU-negative", "setting": "[2]; [8]", "result": "5.33 ± 1", "unit": "%"}
    ]},
    {"sequence": "MRRASRDYTKYLRGSEEMGGGPGAPHEGPLHAPPPPAPHQPPAASRSMFVALLGLGLGQVVCSVALFFYFRAQMDPNRISEDGTHCIYRILRLHENADFQDTTLESQDTKLIPDSCRRIKQAFQGAVQKELQHIVGSQHIRAEKAMVDGSWLDLAKRSKLEAQPFAHLTINATDIPSGSHKVSLSSWYHDRGWAKISNMTFSNGKLIVNQDGFYYLYANICFRHHETSGDLATEYLQLMVYVTKTSIKIPSSHTLMKGGSTKYWSGNSEFHFYSINVGGFFKLRSGEEISIEVSNPSLLDPDQDATYFGAFKVRDID", "values": [
      {"measurement": "percentage of EdU-negative", "setting": "[1]; [9]", "result": "28.6 ± 1.4", "unit": "%"},
      {"measurement": "percentage of EdU-negative", "setting": "[1]; protein concentration 0.225 µM", "result": "25.6 ± 1.6", "unit": "%"},
      {"measurement": "percentage of EdU-negative", "setting": "[2]; [9]", "result": "4.57 ± 0.17", "unit": "%"},
      {"measurement": "percentage of EdU-negative", "setting": "[2]; protein concentration 0.225 µM", "result": "5.25 ± 0.66", "unit": "%"}
    ]},
    {"sequence": "MRRLLIPLALWLGAVGVGVAELTEAQRRGLQVALEEFHKHPPVQWAFQETSVESAVDTPFPAGIFVRLEFKLQQTSCRKRDWKKPECKVRPNGRKRKCLACIKLGSEDKVLGRLVHCPIETQVLREAEEHQETQCLRVQRAGEDPHSFYFPGQFAFSKALPRS", "values": [
      {"measurement": "percentage of EdU-negative", "setting": "[1]; [9]", "result": "27.7 ± 0.92", "unit": "%"},
      {"measurement": "percentage of EdU-negative", "setting": "[1]; protein concentration 0.225 µM", "result": "26.6 ± 2.6", "unit": "%"},
      {"measurement": "percentage of EdU-negative", "setting": "[2]; [9]", "result": "4.71 ± 0.87", "unit": "%"},
      {"measurement": "percentage of EdU-negative", "setting": "[2]; protein concentration 0.225 µM", "result": "5.88 ± 0.56", "unit": "%"}
    ]},
    {"sequence": "MRRLLLVTSLVVVLLWEAGAVPAPKVPIKMQVKHWPSEQDPEKAWGARVVEPPEKDDQLVVLFPVQKPKLLTTEEKPRGQGRGPILPGTKAWMETEDTLGHVLSPEPDHDSLYHPPPEEDQGEERPRLWVMPNHQVLLGPEEDQDHIYHPQ [Q96NZ9]", "values": [
      {"measurement": "percentage of EdU-negative", "setting": "[1]; protein concentration 0.013 µM", "result": "23.14 ± 0.14", "unit": "%"},
      {"measurement": "percentage of EdU-negative", "setting": "[1]; protein concentration 0.13 µM", "result": "27.38 ± 0.25", "unit": "%"},
      {"measurement": "percentage of EdU-negative", "setting": "[2]; protein concentration 0.013 µM", "result": "4.69 ± 0.15", "unit": "%"},
      {"measurement": "percentage of EdU-negative", "setting": "[2]; protein concentration 0.13 µM", "result": "5.48 ± 0.53", "unit": "%"}
    ]},
    {"sequence": "MRRMWATQGLAVALALSVLPGSRALRPGDCEVCISYLGRFYQDLKDRDVTFSPATIENELIKFCREARGKENRLCYYIGATDDAATKIINEVSKPLAHHIPVEKICEKLKKKDSQICELKYDKQIDLSTVDLKKLRVKELKKILDDWGETCKGCAEKSDYIRKINELMPKYAPKAASARTDL", "values": [
      {"measurement": "percentage of EdU-negative", "setting": "[1]; [3]", "result": "25.9 ± 1.2", "unit": "%"},
      {"measurement": "percentage of EdU-negative", "setting": "[1]; [4]", "result": "24.8 ± 3.6", "unit": "%"},
      {"measurement": "percentage of EdU-negative", "setting": "[2]; [3]", "result": "5.21 ± 0.51", "unit": "%"},
      {"measurement": "percentage of EdU-negative", "setting": "[2]; [4]", "result": "6.6 ± 0.2", "unit": "%"}
    ]},
    {"sequence": "MRRPAAVPLLLLLCFGSQRAKAATACGRPRMLNRMVGGQDTQEGEWPWQVSIQRNGSHFCGGSLIAEQWVLTAAHCFRNTSETSLYQVLLGARQLVQPGPHAMYARVRQVESNPLYQGTASSADVALVELEAPVPFTNYILPVCLPDPSVIFETGMNCWVTGWGSPSEEDLLPEPRILQKLAVPIIDTPKCNLLYSKDTEFGYQPKTIKNDMLCAGFEEGKKDACKGDSGGPLVCLVGQSWLQAGVISWGEGCARQNRPGVYIRVTAHHNWIHRIIPKLQFQPARLGGQK [Q9BQR3]", "values": [
      {"measurement": "percentage of EdU-negative", "setting": "[1]; [10]", "result": "25.18 ± 0.16", "unit": "%"},
      {"measurement": "percentage of EdU-negative", "setting": "[1]; [11]", "result": "26.7 ± 2.6", "unit": "%"},
      {"measurement": "percentage of EdU-negative", "setting": "[2]; [10]", "result": "4.44 ± 0.22", "unit": "%"},
      {"measurement": "percentage of EdU-negative", "setting": "[2]; [11]", "result": "6.65 ± 0.73", "unit": "%"}
    ]}
  ]
}
